Source: patent US20210284734A1 (SYMPHOGEN A S, published 2021)

Key:
[1] = biological target: T1, human PD-1 ECD Fc fusion, wild-type (human, UniProt Q15116 21-170); experiment: SPR, Fab on captured wild-type PD-1-Fc; row head prints (nM), values evidently in M
T1 construct: also called Hu PD-1 ECD wild-type; hu PD-1 ECD; not shown: human IgG1 Fc, residues P101-K330

[2] = biological target: T2, human PD-1 ECD-Fc P89A (human, UniProt Q15116 21-170); experiment: SPR, Fab on captured PD-1-Fc;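 note: Alanine-scan PD-1 Fc fusions expressed transiently in ExpiCHO, captured on anti-human IgG Fc surface in IBIS MX96, anti-PD-1 Fab association 15 min, dissociation 30 min, Langmuir 1:1 fit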
T2 construct: not shown: human IgG1 Fc, residues P101-K330

[3] = biological target: T3, human PD-1 ECD-Fc S87A (human, UniProt Q15116 21-170); experiment: SPR, Fab on captured PD-1-Fc;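 note: Alanine-scan PD-1 Fc fusions expressed transiently in ExpiCHO, captured on anti-human IgG Fc surface in IBIS MX96, anti-PD-1 Fab association 15 min, dissociation 30 min, Langmuir 1:1 fit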
T3 construct: not shown: human IgG1 Fc, residues P101-K330

[4] = biological target: T4, human PD-1 ECD-Fc G22A (human, UniProt Q15116 21-170); experiment: SPR, Fab on captured PD-1-Fc;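 note: Alanine-scan PD-1 Fc fusions expressed transiently in ExpiCHO, captured on anti-human IgG Fc surface in IBIS MX96, anti-PD-1 Fab association 15 min, dissociation 30 min, Langmuir 1:1 fit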
T4 construct: not shown: human IgG1 Fc, residues P101-K330

[5] = biological target: T5, human PD-1 ECD-Fc G119A (human, UniProt Q15116 21-170); experiment: SPR, Fab on captured PD-1-Fc;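 note: Alanine-scan PD-1 Fc fusions expressed transiently in ExpiCHO, captured on anti-human IgG Fc surface in IBIS MX96, anti-PD-1 Fab association 15 min, dissociation 30 min, Langmuir 1:1 fit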
T5 construct: not shown: human IgG1 Fc, residues P101-K330

[6] = biological target: T6, human PD-1 ECD-Fc S159A (human, UniProt Q15116 21-170); experiment: SPR, Fab on captured PD-1-Fc
T6 construct: not shown: human IgG1 Fc, residues P101-K330

[7] = biological target: T7, human PD-1 ECD-Fc A132G (human, UniProt Q15116 21-170); experiment: SPR, Fab on captured PD-1-Fc
T7 construct: not shown: human IgG1 Fc, residues P101-K330

[8] = biological target: T8, human PD-1 ECD-Fc T153A (human, UniProt Q15116 21-170); experiment: SPR, Fab on captured PD-1-Fc
T8 construct: not shown: human IgG1 Fc, residues P101-K330

[9] = biological target: T9, human PD-1 ECD-Fc P31A (human, UniProt Q15116 21-170); experiment: SPR, Fab on captured PD-1-Fc
T9 construct: not shown: human IgG1 Fc, residues P101-K330

[10] = biological target: T10, human PD-1 ECD-Fc S157R (human, UniProt Q15116 21-170); experiment: SPR, Fab on captured PD-1-Fc
T10 construct: also called Rat mutation S157R; not shown: human IgG1 Fc, residues P101-K330

[11] = biological target: T11, human PD-1 ECD-Fc Q133A (human, UniProt Q15116 21-170); experiment: SPR, Fab on captured PD-1-Fc
T11 construct: not shown: human IgG1 Fc, residues P101-K330

[12] = biological target: T12, human PD-1 ECD-Fc V44A (human, UniProt Q15116 21-170); experiment: SPR, Fab on captured PD-1-Fc
T12 construct: not shown: human IgG1 Fc, residues P101-K330

[13] = biological target: T13, human PD-1 ECD-Fc H155A (human, UniProt Q15116 21-170); experiment: SPR, Fab on captured PD-1-Fc
T13 construct: not shown: human IgG1 Fc, residues P101-K330

[14] = biological target: T14, human PD-1 ECD-Fc P28L (human, UniProt Q15116 21-170); experiment: SPR, Fab on captured PD-1-Fc
T14 construct: also called Rat mutation P28L; not shown: human IgG1 Fc, residues P101-K330

[15] = biological target: T15, human PD-1 ECD-Fc S27A (human, UniProt Q15116 21-170); experiment: SPR, Fab on captured PD-1-Fc
T15 construct: not shown: human IgG1 Fc, residues P101-K330

[16] = biological target: T16, human PD-1 ECD-Fc F56A (human, UniProt Q15116 21-170); experiment: SPR, Fab on captured PD-1-Fc
T16 construct: not shown: human IgG1 Fc, residues P101-K330

[17] = biological target: T17, human PD-1 ECD-Fc K78A (human, UniProt Q15116 21-170); experiment: SPR, Fab on captured PD-1-Fc
T17 construct: not shown: human IgG1 Fc, residues P101-K330

[18] = biological target: T18, human PD-1 ECD-Fc P83A (human, UniProt Q15116 21-170); experiment: SPR, Fab on captured PD-1-Fc
T18 construct: not shown: human IgG1 Fc, residues P101-K330

[19] = biological target: T19, human PD-1 ECD-Fc D26A (human, UniProt Q15116 21-170); experiment: SPR, Fab on captured PD-1-Fc
T19 construct: not shown: human IgG1 Fc, residues P101-K330

[20] = biological target: T20, human PD-1 ECD-Fc Q167A (human, UniProt Q15116 21-170); experiment: SPR, Fab on captured PD-1-Fc
T20 construct: label printed under 'Rat mutation', values in r90; not shown: human IgG1 Fc, residues P101-K330

[21] = biological target: T21, human PD-1 ECD-Fc N66A (human, UniProt Q15116 21-170); experiment: SPR, Fab on captured PD-1-Fc
T21 construct: not shown: human IgG1 Fc, residues P101-K330

[22] = biological target: T22, human PD-1 ECD-Fc Y68A (human, UniProt Q15116 21-170); experiment: SPR, Fab on captured PD-1-Fc
T22 construct: not shown: human IgG1 Fc, residues P101-K330

[23] = biological target: T23, human PD-1 ECD-Fc S60A (human, UniProt Q15116 21-170); experiment: SPR, Fab on captured PD-1-Fc
T23 construct: not shown: human IgG1 Fc, residues P101-K330

[24] = biological target: T24, human PD-1 ECD-Fc Q75A (human, UniProt Q15116 21-170); experiment: SPR, Fab on captured PD-1-Fc
T24 construct: not shown: human IgG1 Fc, residues P101-K330

[25] = biological target: T25, human PD-1 ECD-Fc D29A (human, UniProt Q15116 21-170); experiment: SPR, Fab on captured PD-1-Fc
T25 construct: not shown: human IgG1 Fc, residues P101-K330

[26] = biological target: T26, human PD-1 ECD-Fc P156A (human, UniProt Q15116 21-170); experiment: SPR, Fab on captured PD-1-Fc
T26 construct: not shown: human IgG1 Fc, residues P101-K330

[27] = biological target: T27, human PD-1 ECD-Fc C93A (human, UniProt Q15116 21-170); experiment: SPR, Fab on captured PD-1-Fc
T27 construct: not shown: human IgG1 Fc, residues P101-K330
T27 sequence (Q15116 21-170 C93A): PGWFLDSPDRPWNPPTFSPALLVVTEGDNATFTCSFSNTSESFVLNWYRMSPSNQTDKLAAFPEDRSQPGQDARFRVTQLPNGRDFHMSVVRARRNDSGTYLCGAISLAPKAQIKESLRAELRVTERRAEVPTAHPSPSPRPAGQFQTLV

T15 sequence (Q15116 21-170 S27A): as the sequence (Q15116 21-170 C93A) above, with S7A, A73C counted along it
T16 sequence (Q15116 21-170 F56A): as the sequence (Q15116 21-170 C93A) above, with F36A, A73C counted along it
T22 sequence (Q15116 21-170 Y68A): as the sequence (Q15116 21-170 C93A) above, with Y48A, A73C counted along it
T8 sequence (Q15116 21-170 T153A): as the sequence (Q15116 21-170 C93A) above, with A73C, T133A counted along it
T20 sequence (Q15116 21-170 Q167A): as the sequence (Q15116 21-170 C93A) above, with A73C, Q147A counted along it
T4 sequence (Q15116 21-170 G22A): as the sequence (Q15116 21-170 C93A) above, with G2A, A73C counted along it
T11 sequence (Q15116 21-170 Q133A): as the sequence (Q15116 21-170 C93A) above, with A73C, Q113A counted along it
T14 sequence (Q15116 21-170 P28L): as the sequence (Q15116 21-170 C93A) above, with P8L, A73C counted along it
T5 sequence (Q15116 21-170 G119A): as the sequence (Q15116 21-170 C93A) above, with A73C, G99A counted along it
T19 sequence (Q15116 21-170 D26A): as the sequence (Q15116 21-170 C93A) above, with D6A, A73C counted along it
T23 sequence (Q15116 21-170 S60A): as the sequence (Q15116 21-170 C93A) above, with S40A, A73C counted along it
T7 sequence (Q15116 21-170 A132G): as the sequence (Q15116 21-170 C93A) above, with A73C, A112G counted along it
T2 sequence (Q15116 21-170 P89A): as the sequence (Q15116 21-170 C93A) above, with P69A, A73C counted along it
T26 sequence (Q15116 21-170 P156A): as the sequence (Q15116 21-170 C93A) above, with A73C, P136A counted along it
T9 sequence (Q15116 21-170 P31A): as the sequence (Q15116 21-170 C93A) above, with P11A, A73C counted along it
T18 sequence (Q15116 21-170 P83A): as the sequence (Q15116 21-170 C93A) above, with P63A, A73C counted along it
T25 sequence (Q15116 21-170 D29A): as the sequence (Q15116 21-170 C93A) above, with D9A, A73C counted along it
T13 sequence (Q15116 21-170 H155A): as the sequence (Q15116 21-170 C93A) above, with A73C, H135A counted along it
T12 sequence (Q15116 21-170 V44A): as the sequence (Q15116 21-170 C93A) above, with V24A, A73C counted along it
T21 sequence (Q15116 21-170 N66A): as the sequence (Q15116 21-170 C93A) above, with N46A, A73C counted along it
T6 sequence (Q15116 21-170 S159A): as the sequence (Q15116 21-170 C93A) above, with A73C, S139A counted along it
T24 sequence (Q15116 21-170 Q75A): as the sequence (Q15116 21-170 C93A) above, with Q55A, A73C counted along it
T10 sequence (Q15116 21-170 S157R): as the sequence (Q15116 21-170 C93A) above, with A73C, S137R counted along it
T3 sequence (Q15116 21-170 S87A): as the sequence (Q15116 21-170 C93A) above, with S67A, A73C counted along it
T17 sequence (Q15116 21-170 K78A): as the sequence (Q15116 21-170 C93A) above, with K58A, A73C counted along it
T1 sequence (Q15116 21-170): as the sequence (Q15116 21-170 C93A) above, with A73C counted along it

| Binder | KD mutant/KD wild-type [2] | KD mutant/KD wild-type [3] | KD mutant/KD wild-type [4] | KD mutant/KD wild-type [5] | KD mutant/KD wild-type [6] | KD mutant/KD wild-type [7] | KD mutant/KD wild-type [8] | KD mutant/KD wild-type [9] | KD mutant/KD wild-type [10] | KD mutant/KD wild-type [11] | KD mutant/KD wild-type [12] | KD mutant/KD wild-type [13] | KD mutant/KD wild-type [14] | KD mutant/KD wild-type [15] | KD mutant/KD wild-type [16] | KD mutant/KD wild-type [17] | KD mutant/KD wild-type [18] | KD mutant/KD wild-type [19] | KD mutant/KD wild-type [20] | KD mutant/KD wild-type [21] | other results |
| --- | --- | --- | --- | --- | --- | --- | --- | --- | --- | --- | --- | --- | --- | --- | --- | --- | --- | --- | --- | --- | --- |
| 12819.17149 Fab (Fab, V domains shown, monomeric Fab fragment) VH: EVQLLESGGGLVQPGGSLRLSCAASGFTFTRYDMVWVRQAPGKGLEWVAGIGDSNKMTRYAPAVKGRATISRDNSKNTLYLQMNSLRAEDTAVYYCAKGSCIACWDEAGRIDAWGQGTLVTVSS VL: SYELTQDPAVSVALGQTVRITCSGGGSYDGSSYYGWYQQKPGQAPVTVIYNNNNRPSDIPDRFSGSSSGNTASLTITGAQAEDEADYYCGSYDRPETNSDYVGMFGSGTKVTVL | 1.1 ratio | 1.3 ratio | 1 ratio | 1 ratio | 1.1 ratio | 53.4 ratio | 0.9 ratio | 1.1 ratio | 1.6 ratio | 0.7 ratio | 1.4 ratio | 1.1 ratio | 1.9 ratio | 0.8 ratio | 1.5 ratio | 2.6 ratio | 1.5 ratio | 1.1 ratio | 0.8 ratio | 2.2 ratio | Kd [1]: 0.0268 nM; KD mutant/KD wild-type [22]: 2.2 ratio; KD mutant/KD wild-type [23]: 1.8 ratio; KD mutant/KD wild-type [24]: 1 ratio; KD mutant/KD wild-type [25]: 1 ratio; KD mutant/KD wild-type [26]: 1 ratio; KD mutant/KD wild-type [27]: 1.2 ratio |
| 12865.17150 Fab (Fab, V domains shown, monomeric Fab fragment) VH: EVQLLESGGGLVQPGGSLRLSCAASGFDFSDHGMQWVRQAPGKGLEYVGVIDTTGRYTYYAPAVKGRATISRDNSKNTLYLQMNSLRAEDTAVYYCAKTTCVGGYLCNTVGSIDAWGQGTLVTVSS VL: SYELTQDPAVSVALGQTVRITCSGGGSSSYYGWYQQKPGQAPVTVIYDDTNRPSGIPDRFSGSSSGNTASLTITGAQAEDEADYYCGGYEGSSHAGIFGSGTKVTVL | 0.9 ratio | 0.9 ratio | 0.9 ratio | 0.4 ratio | 0.8 ratio | 1.4 ratio | 1 ratio | 1 ratio | 0.9 ratio | 1.4 ratio | 0.8 ratio | 1 ratio | 0.5 ratio | 0.8 ratio | 0.5 ratio | 0.7 ratio | 0.8 ratio | 0.8 ratio | 1 ratio | 2.1 ratio | KD mutant/KD wild-type [22]: 1.4 ratio; KD mutant/KD wild-type [23]: 0.6 ratio; KD mutant/KD wild-type [24]: 0.5 ratio; KD mutant/KD wild-type [25]: 0.9 ratio; KD mutant/KD wild-type [26]: 1.1 ratio; KD mutant/KD wild-type [27]: 0.9 ratio |
| 13112.15380 Fab (Fab, V domains shown) VH: EVQLLESGGGLVQPGGSLRLSCAASGFTFSSYNMFWVRQAPGKGLEFVAEISGSNTGSRTWYAPAVKGRATISRDNSKNTLYLQMNSLRAEDTAVYYCAKSIYGGYCAGGYSCGVGLIDAWGQGTLVTVSS VL: SYELTQDPAVSVALGQTVRITCSGGSSDYYGWFQQKPGQAPVTVIYYNNKRPSDIPDRFSGSSSGNTASLTITGAQAEDEADYYCGNADSSVGVFGSGTKVTVL | 0.9 ratio | 1 ratio | 1 ratio | 1 ratio | 0.9 ratio | 1 ratio | 1 ratio | 1.1 ratio | 1 ratio | 0.9 ratio | 9.9 ratio | 1 ratio | 0.7 ratio | 1.1 ratio | 0.8 ratio | 1.1 ratio | 0.9 ratio | 1.2 ratio | 0.9 ratio | 1 ratio | KD mutant/KD wild-type [22]: 0.8 ratio; KD mutant/KD wild-type [23]: 1 ratio; KD mutant/KD wild-type [24]: 0.9 ratio; KD mutant/KD wild-type [25]: 1 ratio; KD mutant/KD wild-type [26]: 1.5 ratio; KD mutant/KD wild-type [27]: 1.1 ratio |
